{"source": "patent US20230135471A1", "about": "“UBIQUITIN VARIANTS WITH IMPROVED AFFINITY FOR 53BP1” (Integrated DNA Technologies, Inc., priority 2021, published 2023)"}
{"biological_target": "53BP1 fragment (a.a. 1221-1718) fused to an adenylate cyclase fragment (two-hybrid) (UniProt Q12888)", "assay": "cell-based or functional assay", "units": {"Experiment 1 Average Enrichment": "log2", "Experiment 1 Rep 1 Enrichment": "log2", "Experiment 1 Rep 2 Enrichment": "log2", "Experiment 2 Average Enrichment": "log2", "Experiment 2 Rep 1 Enrichment": "log2", "Experiment 2 Rep 2 Enrichment": "log2"}}
{"substance": "i53 + R54K two-hybrid fusion (designed binder)", "Experiment 1 Average Enrichment": 0.3, "Experiment 1 Rep 1 Enrichment": 0.07, "Experiment 1 Rep 2 Enrichment": 0.54, "Experiment 2 Average Enrichment": -0.22, "Experiment 2 Rep 1 Enrichment": -0.16, "Experiment 2 Rep 2 Enrichment": -0.29}
{"substance": "i53 + V26L two-hybrid fusion (designed binder)", "Experiment 1 Average Enrichment": 0.55, "Experiment 1 Rep 1 Enrichment": 0.4, "Experiment 1 Rep 2 Enrichment": 0.69, "Experiment 2 Average Enrichment": 0.55, "Experiment 2 Rep 1 Enrichment": 0.52, "Experiment 2 Rep 2 Enrichment": 0.58}
{"substance": "i53 + K48L two-hybrid fusion (designed binder)", "Experiment 1 Average Enrichment": 0.05, "Experiment 1 Rep 1 Enrichment": 0.05, "Experiment 1 Rep 2 Enrichment": 0.04, "Experiment 2 Average Enrichment": 0.2, "Experiment 2 Rep 1 Enrichment": 0.28, "Experiment 2 Rep 2 Enrichment": 0.12}
{"substance": "i53 + Q41I two-hybrid fusion (designed binder)", "Experiment 1 Average Enrichment": 0.3, "Experiment 1 Rep 1 Enrichment": 0.3, "Experiment 1 Rep 2 Enrichment": 0.3, "Experiment 2 Average Enrichment": -0.08, "Experiment 2 Rep 1 Enrichment": 0.08, "Experiment 2 Rep 2 Enrichment": -0.25}
{"substance": "i53 + S49C two-hybrid fusion (designed binder)", "Experiment 1 Average Enrichment": 0.6, "Experiment 1 Rep 1 Enrichment": 0.95, "Experiment 1 Rep 2 Enrichment": 0.24, "Experiment 2 Average Enrichment": -0.18, "Experiment 2 Rep 1 Enrichment": -0.04, "Experiment 2 Rep 2 Enrichment": -0.31}
{"substance": "i53 + K33L two-hybrid fusion (designed binder)", "Experiment 1 Average Enrichment": 2.53, "Experiment 1 Rep 1 Enrichment": 2.4, "Experiment 1 Rep 2 Enrichment": 2.65, "Experiment 2 Average Enrichment": 1.6, "Experiment 2 Rep 1 Enrichment": 1.67, "Experiment 2 Rep 2 Enrichment": 1.53}
{"substance": "i53 + R42C two-hybrid fusion (designed binder)", "Experiment 1 Average Enrichment": 0.42, "Experiment 1 Rep 1 Enrichment": 0.37, "Experiment 1 Rep 2 Enrichment": 0.47, "Experiment 2 Average Enrichment": 0.28, "Experiment 2 Rep 1 Enrichment": 0.54, "Experiment 2 Rep 2 Enrichment": 0.01}
{"substance": "i53 + A28I two-hybrid fusion (designed binder)", "Experiment 1 Average Enrichment": 0.05, "Experiment 1 Rep 1 Enrichment": -0.45, "Experiment 1 Rep 2 Enrichment": 0.56, "Experiment 2 Average Enrichment": 0.05, "Experiment 2 Rep 1 Enrichment": 0.37, "Experiment 2 Rep 2 Enrichment": -0.28}
{"substance": "i53 + P38A two-hybrid fusion (designed binder)", "Experiment 1 Average Enrichment": 0.06, "Experiment 1 Rep 1 Enrichment": -0.41, "Experiment 1 Rep 2 Enrichment": 0.53, "Experiment 2 Average Enrichment": 0, "Experiment 2 Rep 1 Enrichment": -0.16, "Experiment 2 Rep 2 Enrichment": 0.15}
{"substance": "i53 + K33T two-hybrid fusion (designed binder)", "Experiment 1 Average Enrichment": 1.77, "Experiment 1 Rep 1 Enrichment": 1.9, "Experiment 1 Rep 2 Enrichment": 1.63, "Experiment 2 Average Enrichment": 1.41, "Experiment 2 Rep 1 Enrichment": 1.48, "Experiment 2 Rep 2 Enrichment": 1.34}
{"substance": "i53 + S57M two-hybrid fusion (designed binder)", "Experiment 1 Average Enrichment": 0.01, "Experiment 1 Rep 1 Enrichment": -0.11, "Experiment 1 Rep 2 Enrichment": 0.12, "Experiment 2 Average Enrichment": -0.04, "Experiment 2 Rep 1 Enrichment": -0.17, "Experiment 2 Rep 2 Enrichment": 0.09}
{"substance": "i53 + L67S two-hybrid fusion (designed binder)", "Experiment 1 Average Enrichment": 1.18, "Experiment 1 Rep 1 Enrichment": 1.15, "Experiment 1 Rep 2 Enrichment": 1.2, "Experiment 2 Average Enrichment": 0.94, "Experiment 2 Rep 1 Enrichment": 1.24, "Experiment 2 Rep 2 Enrichment": 0.63}
{"substance": "i53 + S65E two-hybrid fusion (designed binder)", "Experiment 1 Average Enrichment": 1.54, "Experiment 1 Rep 1 Enrichment": 1.29, "Experiment 1 Rep 2 Enrichment": 1.79, "Experiment 2 Average Enrichment": 0.8, "Experiment 2 Rep 1 Enrichment": 0.74, "Experiment 2 Rep 2 Enrichment": 0.85}
{"substance": "i53 + R74C two-hybrid fusion (designed binder)", "Experiment 1 Average Enrichment": 0.81, "Experiment 1 Rep 1 Enrichment": 0.64, "Experiment 1 Rep 2 Enrichment": 0.99, "Experiment 2 Average Enrichment": 0.65, "Experiment 2 Rep 1 Enrichment": 0.68, "Experiment 2 Rep 2 Enrichment": 0.63}
